In patent publication US20180296691A1 (Pfizer, published 2018) one finds Kd data, which are given here for one molecule.

What all share (assay): SPR (BIAcore 2000), Eph receptor captured via anti-human antibody capture kit, monomeric human Ephrin-A4 12-400 nM as analyte, steady state affinity fit
For orientation: In SPR one partner is held on a chip, and binding of the other changes the refractive index at the surface.

Experiment [1] addresses T1, recombinant EphB2 receptor (commercially available) (UniProt P29323 19-543, limits assumed).
T1 sequence (looked up): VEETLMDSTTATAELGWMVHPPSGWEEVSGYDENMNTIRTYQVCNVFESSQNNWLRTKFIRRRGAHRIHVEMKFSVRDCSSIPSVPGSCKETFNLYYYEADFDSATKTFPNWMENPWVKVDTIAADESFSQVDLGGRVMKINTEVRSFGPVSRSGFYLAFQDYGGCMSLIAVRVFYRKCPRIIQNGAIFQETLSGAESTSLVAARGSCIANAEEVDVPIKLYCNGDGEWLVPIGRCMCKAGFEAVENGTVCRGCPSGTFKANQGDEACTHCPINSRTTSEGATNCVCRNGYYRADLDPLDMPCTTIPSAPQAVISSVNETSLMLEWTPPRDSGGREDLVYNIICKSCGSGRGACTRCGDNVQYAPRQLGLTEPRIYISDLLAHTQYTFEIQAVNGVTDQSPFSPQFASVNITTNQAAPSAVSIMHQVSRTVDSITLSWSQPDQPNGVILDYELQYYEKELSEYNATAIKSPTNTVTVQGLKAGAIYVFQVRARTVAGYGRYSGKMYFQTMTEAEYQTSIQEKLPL

Experiment [2] addresses T2, recombinant EphA6 receptor (commercially available) (UniProt Q9UF33 23-550, limits assumed).
T2 sequence (looked up): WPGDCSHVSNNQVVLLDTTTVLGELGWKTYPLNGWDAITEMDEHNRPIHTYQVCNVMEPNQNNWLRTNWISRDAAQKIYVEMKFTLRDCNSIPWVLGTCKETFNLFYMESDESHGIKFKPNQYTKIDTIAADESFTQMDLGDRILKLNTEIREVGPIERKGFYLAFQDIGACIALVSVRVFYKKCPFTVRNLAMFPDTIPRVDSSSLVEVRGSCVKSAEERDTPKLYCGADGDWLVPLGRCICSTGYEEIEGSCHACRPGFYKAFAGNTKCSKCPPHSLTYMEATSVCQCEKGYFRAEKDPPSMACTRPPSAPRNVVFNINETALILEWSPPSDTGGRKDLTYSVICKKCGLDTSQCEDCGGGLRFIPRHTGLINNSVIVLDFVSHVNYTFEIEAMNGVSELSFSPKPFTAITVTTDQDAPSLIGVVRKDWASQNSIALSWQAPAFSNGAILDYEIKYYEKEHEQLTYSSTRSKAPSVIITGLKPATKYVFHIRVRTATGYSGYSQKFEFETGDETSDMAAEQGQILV

Experiment [3] deals with T3, recombinant EphA7 receptor (commercially available) (UniProt Q15375 28-555, limits assumed).
T3 sequence (looked up): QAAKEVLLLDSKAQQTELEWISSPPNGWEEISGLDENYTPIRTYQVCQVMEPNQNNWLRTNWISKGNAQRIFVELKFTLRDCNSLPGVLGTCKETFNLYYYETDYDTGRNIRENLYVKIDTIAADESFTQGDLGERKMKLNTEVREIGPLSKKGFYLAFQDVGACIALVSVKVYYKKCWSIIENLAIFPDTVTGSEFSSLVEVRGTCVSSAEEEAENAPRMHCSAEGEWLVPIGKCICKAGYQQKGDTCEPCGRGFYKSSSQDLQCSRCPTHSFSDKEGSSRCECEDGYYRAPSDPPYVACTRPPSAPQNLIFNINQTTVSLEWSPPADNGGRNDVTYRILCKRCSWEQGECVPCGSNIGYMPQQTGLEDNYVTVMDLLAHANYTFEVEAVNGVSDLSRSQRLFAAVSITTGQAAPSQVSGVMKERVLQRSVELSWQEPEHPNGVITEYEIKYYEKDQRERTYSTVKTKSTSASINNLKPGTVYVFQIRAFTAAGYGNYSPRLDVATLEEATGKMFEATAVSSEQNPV

The target of experiment [4] is T4, recombinant EphA3 receptor (commercially available) (UniProt P29320 21-541, limits assumed).
T4 sequence (looked up): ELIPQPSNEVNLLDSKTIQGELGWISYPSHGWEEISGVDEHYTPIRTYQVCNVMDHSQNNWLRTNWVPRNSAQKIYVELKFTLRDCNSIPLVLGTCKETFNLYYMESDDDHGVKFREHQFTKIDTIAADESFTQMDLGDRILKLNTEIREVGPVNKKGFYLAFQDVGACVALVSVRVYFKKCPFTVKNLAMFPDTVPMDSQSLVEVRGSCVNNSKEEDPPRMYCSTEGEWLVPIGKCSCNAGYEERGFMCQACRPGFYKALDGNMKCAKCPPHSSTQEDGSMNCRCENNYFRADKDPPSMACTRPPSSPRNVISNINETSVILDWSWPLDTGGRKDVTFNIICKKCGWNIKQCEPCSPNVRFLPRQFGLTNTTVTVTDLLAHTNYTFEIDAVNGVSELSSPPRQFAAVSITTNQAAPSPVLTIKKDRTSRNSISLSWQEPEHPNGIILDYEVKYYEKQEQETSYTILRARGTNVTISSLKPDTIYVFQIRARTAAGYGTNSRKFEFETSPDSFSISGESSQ

Experiment [5] deals with recombinant EphA4 receptor (commercially available) (UniProt P54764 20-547, limits assumed).
The target in experiment [6] is recombinant EphA2 receptor (commercially available) (UniProt P29317 25-534, limits assumed).
The target of experiment [7] is T5, recombinant EphA10 receptor (commercially available) (UniProt Q5JZY3 34-565, limits assumed).
T5 sequence (looked up): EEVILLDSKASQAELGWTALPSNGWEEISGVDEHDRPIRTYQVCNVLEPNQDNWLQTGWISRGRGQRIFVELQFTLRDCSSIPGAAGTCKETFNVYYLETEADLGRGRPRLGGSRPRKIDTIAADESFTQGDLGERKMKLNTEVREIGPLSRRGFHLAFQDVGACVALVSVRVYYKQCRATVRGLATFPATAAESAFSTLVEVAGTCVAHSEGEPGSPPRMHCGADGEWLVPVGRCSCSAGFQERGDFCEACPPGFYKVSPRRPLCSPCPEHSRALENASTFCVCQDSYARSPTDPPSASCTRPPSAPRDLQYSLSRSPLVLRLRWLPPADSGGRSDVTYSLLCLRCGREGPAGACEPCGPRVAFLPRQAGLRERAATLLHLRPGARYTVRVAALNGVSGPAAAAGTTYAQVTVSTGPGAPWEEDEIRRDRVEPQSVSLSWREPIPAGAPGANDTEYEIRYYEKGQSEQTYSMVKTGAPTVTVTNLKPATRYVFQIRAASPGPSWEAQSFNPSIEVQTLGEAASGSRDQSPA

As usually defined, the Kd is a measure of binding affinity in units of concentration.

Chain of recombinant EphA4 receptor (commercially available) (P54764 20-547 limits assumed): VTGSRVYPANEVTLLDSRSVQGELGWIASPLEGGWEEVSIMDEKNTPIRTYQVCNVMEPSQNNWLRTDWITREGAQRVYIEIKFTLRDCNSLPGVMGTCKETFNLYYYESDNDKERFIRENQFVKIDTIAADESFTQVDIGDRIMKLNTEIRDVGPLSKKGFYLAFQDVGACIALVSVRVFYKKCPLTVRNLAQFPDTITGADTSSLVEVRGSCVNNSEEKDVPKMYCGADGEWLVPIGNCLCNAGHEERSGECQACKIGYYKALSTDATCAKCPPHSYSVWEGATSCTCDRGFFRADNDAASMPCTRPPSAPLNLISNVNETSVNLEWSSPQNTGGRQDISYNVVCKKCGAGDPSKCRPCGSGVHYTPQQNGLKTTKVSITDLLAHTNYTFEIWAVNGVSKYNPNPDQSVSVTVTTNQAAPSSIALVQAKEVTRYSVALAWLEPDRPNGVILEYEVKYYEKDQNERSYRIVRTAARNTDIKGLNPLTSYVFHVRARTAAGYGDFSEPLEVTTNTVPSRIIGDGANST
Chain of recombinant EphA2 receptor (commercially available) (P29317 25-534 limits assumed): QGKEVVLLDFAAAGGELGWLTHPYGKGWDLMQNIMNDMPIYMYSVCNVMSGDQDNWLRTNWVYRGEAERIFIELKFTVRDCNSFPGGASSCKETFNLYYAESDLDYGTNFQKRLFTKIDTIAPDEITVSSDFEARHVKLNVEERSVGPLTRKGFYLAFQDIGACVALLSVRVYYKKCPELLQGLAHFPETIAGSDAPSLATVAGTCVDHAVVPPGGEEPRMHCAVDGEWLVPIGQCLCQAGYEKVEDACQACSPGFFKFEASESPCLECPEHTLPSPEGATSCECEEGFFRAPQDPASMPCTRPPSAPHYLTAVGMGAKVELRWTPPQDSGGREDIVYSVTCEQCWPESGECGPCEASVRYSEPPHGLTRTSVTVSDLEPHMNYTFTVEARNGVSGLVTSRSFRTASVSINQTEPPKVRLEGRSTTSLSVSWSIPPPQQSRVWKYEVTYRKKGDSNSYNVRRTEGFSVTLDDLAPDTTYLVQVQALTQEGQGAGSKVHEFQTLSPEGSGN

B1: monomeric human Ephrin-A4 (ligand)
chain: LRHVVYWNSSNPRLLRGDAVVELGLNDYLDIVCPHYEGPGPPEGPETFALYMVDWPGYESCQAEGPRAYKRWVCSLPFGHVQFSEKIQRFTPFSLGFEFLPGETYYYISVPTPESSGQCLRLQVSVCCKERKSESAHPVGSPGES
Turning to B1, the Kd in experiment [1] worked out at 135 nM; in experiment [2] it was 82 nM; in experiment [3] it was 86 nM; in experiment [4], 77 nM; in experiment [5] it was 122 nM; in experiment [6], 31 nM. The Kd in experiment [7] is 431 nM.
